# Assay results taken from patent US20220074941A1, “HSP90 COMBINATION THERAPY” (Sloan-Kettering Institute for Cancer Research, priority 2011, published 2022).
# B1: NAT10 (protein, UniProt Q9H0A0 1-1025, looked up)
# RNA cytidine acetyltransferase: MHRKKVDNRIRILIENGVAERQRSLFVVVGDRGKDQVVILHHMLSKATVKARPSVLWCYKKELGFSSHRKKRMRQLQKKIKNGTLNIKQDDPFELFIAATNIRYCYYNETHKILGNTFGMCVLQDFEALTPNLLARTVETVEGGGLVVILLRTMNSLKQLYTVTMDVHSRYRTEAHQDVVGRFNERFILSLASCKKCLVIDDQLNILPISSHVATMEALPPQTPDESLGPSDLELRELKESLQDTQPVGVLVDCCKTLDQAKAVLKFIEGISEKTLRSTVALTAARGRGKSAALGLAIAGAVAFGYSNIFVTSPSPDNLHTLFEFVFKGFDALQYQEHLDYEIIQSLNPEFNKAVIRVNVFREHRQTIQYIHPADAVKLGQAELVVIDEAAAIPLPLVKSLLGPYLVFMASTINGYEGTGRSLSLKLIQQLRQQSAQSQVSTTAENKTTTTARLASARTLYEVSLQESIRYAPGDAVEKWLNDLLCLDCLNITRIVSGCPLPEACELYYVNRDTLFCYHKASEVFLQRLMALYVASHYKNSPNDLQMLSDAPAHHLFCLLPPVPPTQNALPEVLAVIQVCLEGEISRQSILNSLSRGKKASGDLIPWTVSEQFQDPDFGGLSGGRVVRIAVHPDYQGMGYGSRALQLLQMYYEGRFPCLEEKVLETPQEIHTVSSEAVSLLEEVITPRKDLPPLLLKLNERPAERLDYLGVSYGLTPRLLKFWKRAGFVPVYLRQTPNDLTGEHSCIMLKTLTDEDEADQGGWLAAFWKDFRRRFLALLSYQFSTFSPSLALNIIQNRNMGKPAQPALSREELEALFLPYDLKRLEMYSRNMVDYHLIMDMIPAISRIYFLNQLGDLALSAAQSALLLGIGLQHKSVDQLEKEIELPSGQLMGLFNRIIRKVVKLFNEVQEKAIEEQMVAAKDVVMEPTMKTLSDDLDEAAKEFQEKHKKEVGKLKSMDLSEYIIRGDDEEWNEVLNKAGPNASIISLKSDKKRKLEAKQEPKQSKKLKNRETKNKKDMKLKRKK
# B2: FAM120A (protein, UniProt Q9NZB2 1-1118, looked up)
# Constitutive coactivator of …: MGVQGFQDYIEKHCPSAVVPVELQKLARGSLVGGGRQRPPQTPLRLLVDADNCLHRLYGGFYTDWVSGGQWNHMLGYLAALAKACFGGNIELFVFFNGALEKARLHEWVKRQGNERQTAQQIVSHVQNKGTPPPKVWFLPPVCMAHCIRLALIRFHVKVAQSIEDHHQEVIGFCRENGFHGLVAYDSDYALCNIPYYFSAHALKLSRNGKSLTTSQYLMHEVAKQLDLNPNRFPIFAALLGNHILPDEDLASFHWSLLGPEHPLASLKVRAHQLVLPPCDVVIKAVADYVRNIQDTSDLDAIAKDVFQHSQSRTDDKVIRFKRAIGYYSATSKPMSFHPPHYLAARPGPFGMPGMVPPHVPPQMLNIPQTSLQAKPVAPQVPSPGGAPGQGPYPYSLSEPAPLTLDTSGKNLTEQNSYSNIPHEGKHTPLYERSSPINPAQSGSPNHVDSAYFPGSSTSSSSDNDEGSGGATNHISGNKIGWEKTGSHSEPQARGDPGDQTKAEGSSTASSGSQLAEGKGSQMGTVQPIPCLLSMPTRNHMDITTPPLPPVAPEVLRVAEHRHKKGLMYPYIFHVLTKGEIKIAVSIEDEANKDLPPAALLYRPVRQYVYGVLFSLAESRKKTERLAFRKNRLPPEFSPVIIKEWAAYKGKSPQTPELVEALAFREWTCPNLKRLWLGKAVEDKNRRMRAFLACMRSDTPAMLNPANVPTHLMVLCCVLRYMVQWPGARILRRQELDAFLAQALSPKLYEPDQLQELKIENLDPRGIQLSALFMSGVDMALFANDACGQPIPWEHCCPWMYFDGKLFQSKLLKASREKTPLIDLCDGQADQAAKVEKMRQSVLEGLSFSRQSHTLPFPPPPALPFYPASAYPRHFGPVPPSQGRGRGFAGVCGFGGPYGETVATGPYRAFRVAAASGHCGAFSGSDSSRTSKSQGGVQPIPSQGGKLEIAGTVVGHWAGSRRGRGGRGPFPLQVVSVGGPARGRPRGVISTPVIRTFGRGGRYYGRGYKNQAAIQGRPPYAASAEEVAKELKSKSGESKSSAMSSDGSLAENGVMAEEKPAPQMNGSTGDARAPSHSESALNNDSKTCNTNPHLNALSTDSACRREAALEAAVLNKEE
# B3: TRIPI3 (protein, UniProt Q15645 1-432, looked up)
# Pachytene checkpoint protein …: MDEAVGDLKQALPCVAESPTVHVEVHQRGSSTAKKEDINLSVRKLLNRHNIVFGDYTWTEFDEPFLTRNVQSVSIIDTELKVKDSQPIDLSACTVALHIFQLNEDGPSSENLEEETENIIAANHWVLPAAEFHGLWDSLVYDVEVKSHLLDYVMTTLLFSDKNVNSNLITWNRVVLLHGPPGTGKTSLCKALAQKLTIRLSSRYRYGQLIEINSHSLFSKWFSESGKLVTKMFQKIQDLIDDKDALVFVLIDEVESLTAARNACRAGTEPSDAIRVVNAVLTQIDQIKRHSNVVILTTSNITEKIDVAFVDRADIKQYIGPPSAAAIFKIYLSCLEELMKCQIIYPRQQLLTLRELEMIGFIENNVSKLSLLLNDISRKSEGLSGRVLRKLPFLAHALYVQAPTVTIEGFLQALSLAVDKQFEERKKLAAYI
# B4: FAM115A (protein, UniProt Q9Y4C2 1-921, looked up)
# TRPM8 channel-associated …: MATPSAAFEALMNGVTSWDVPEDAVPCELLLIGEASFPVMVNDMGQVLIAASSYGRGRLVVVSHEDYLVEAQLTPFLLNAVGWLCSSPGAPIGVHPSLAPLAKILEGSGVDAKVEPEVKDSLGVYCIDAYNETMTEKLVKFMKCGGGLLIGGQAWDWANQGEDERVLFTFPGNLVTSVAGIYFTDNKGDTSFFKVSKKMPKIPVLVSCEDDLSDDREELLHGISELDISNSDCFPSQLLVHGALAFPLGLDSYHGCVIAAARYGRGRVVVTGHKVLFTVGKLGPFLLNAVRWLDGGRRGKVVVQTELRTLSGLLAVGGIDTSIEPNLTSDASVYCFEPVSEVGVKELQEFVAEGGGLFVGAQAWWWAFKNPGVSPLARFPGNLLLNPFGISITSQSLNPGPFRTPKAGIRTYHFRSTLAEFQVIMGRKRGNVEKGWLAKLGPDGAAFLQIPAEEIPAYMSVHRLLRKLLSRYRLPVATRENPVINDCCRGAMLSLATGLAHSGSDLSLLVPEIEDMYSSPYLRPSESPITVEVNCTNPGTRYCWMSTGLYIPGRQIIEVSLPEAAASADLKIQIGCHTDDLTRASKLFRGPLVINRCCLDKPTKSITCLWGGLLYIIVPQNSKLGSVPVTVKGAVHAPYYKLGETTLEEWKRRIQENPGPWGELATDNIILTVPTANLRTLENPEPLLRLWDEVMQAVARLGAEPFPLRLPQRIVADVQISVGWMHAGYPIMCHLESVQELINEKLIRTKGLWGPVHELGRNQQRQEWEFPPHTTEATCNLWCVYVHETVLGIPRSRANIALWPPVREKRVRIYLSKGPNVKNWNAWTALETYLQLQEAFGWEPFIRLFTEYRNQTNLPTENVDKMNLWVKMFSHQVQKNLAPFFEAWAWPIQKEVATSLAYLPEWKENIMKLYLLTQMPH
# B5: SUPV3L1 (protein, UniProt Q8IYB8 23-786, looked up)
# ATP-dependent RNA helicase …: AICSALRPHFGPFPGVLGQVSVLATASSSASGGSKIPNTSLFVPLTVKPQGPSADGDVGAELTRPLDKNEVKKVLDKFYKRKEIQKLGADYGLDARLFHQAFISFRNYIMQSHSLDVDIHIVLNDICFGAAHADDLFPFFLRHAKQIFPVLDCKDDLRKISDLRIPPNWYPDARAMQRKIIFHSGPTNSGKTYHAIQKYFSAKSGVYCGPLKLLAHEIFEKSNAAGVPCDLVTGEERVTVQPNGKQASHVSCTVEMCSVTTPYEVAVIDEIQMIRDPARGWAWTRALLGLCAEEVHLCGEPAAIDLVMELMYTTGEEVEVRDYKRLTPISVLDHALESLDNLRPGDCIVCFSKNDIYSVSRQIEIRGLESAVIYGSLPPGTKLAQAKKFNDPNDPCKILVATDAIGMGLNLSIRRIIFYSLIKPSINEKGERELEPITTSQALQIAGRAGRFSSRFKEGEVTTMNHEDLSLLKEILKRPVDPIRAAGLHPTAEQIEMFAYHLPDATLSNLIDIFVDFSQVDGQYFVCNMDDFKFSAELIQHIPLSLRVRYVFCTAPINKKQPFVCSSLLQFARQYSRNEPLTFAWLRRYIKWPLLPPKNIKDLMDLEAVHDVLDLYLWLSYRFMDMFPDASLIRDLQKELDGIIQDGVHNITKLIKMSETHKLLNLEGFPSGSQSRLSGTLKSQARRTRGTKALGSKATEPPSPDAGELSLASRLVQQGLLTPDMLKQLEKEWMTQQTEHNKEKTESGTHPKGTRRKKKEPDSD
# B6: LTV1 (protein, UniProt Q96GA3 1-475, looked up)
# Protein LTV1 homolog: MPHRKKKPFIEKKKAVSFHLVHRSQRDPLAADESAPQRVLLPTQKIDNEERRAEQRKYGVFFDDDYDYLQHLKEPSGPSELIPSSTFSAHNRREEKEETLVIPSTGIKLPSSVFASEFEEDVGLLNKAAPVSGPRLDFDPDIVAALDDDFDFDDPDNLLEDDFILQANKATGEEEGMDIQKSENEDDSEWEDVDDEKGDSNDDYDSAGLLSDEDCMSVPGKTHRAIADHLFWSEETKSRFTEYSMTSSVMRRNEQLTLHDERFEKFYEQYDDDEIGALDNAELEGSIQVDSNRLQEVLNDYYKEKAENCVKLNTLEPLEDQDLPMNELDESEEEEMITVVLEEAKEKWDCESICSTYSNLYNHPQLIKYQPKPKQIRISSKTGIPLNVLPKKGLTAKQTERIQMINGSDLPKVSTQPRSKNESKEDKRARKQAIKEERKERRVEKKANKLAFKLEKRRQEKELLNLKKNVEGLKL
# System: Hsp90 complexes in K562 cell extract
# Experiment: Nano-LC-MS/MS of PU-beads pull-downs
# Type: binding
# Conditions: protein identified in PU-beads pull-down of K562 cell extract, Prep 1; QSTAR-Elite QTof MS
# Description: Protein cargo isolated from cell lysate with PU-beads or control-beads was subjected to proteomic analysis by nano liquid chromatography coupled to tandem mass spectrometry (nano LC-MS/MS). Initial protein identification was performed using the Mascot search engine, and was further evaluated using Scaffold Proteome Software (Tables 5a-d).
# (§1) Lysates prepared as mentioned above were first pre-cleaned by incubation with control beads overnight at 4° C. […] Beads were washed with lysis buffer, proteins eluted by boiling in 2% SDS, separated on a denaturing gel and Coomassie stained according to manufacturer's procedure (Biorad). […] Analyses of the batch purified pools were done using a QSTAR-Elite hybrid quadrupole time-of-flight mass spectrometer (QTof MS) (AB/MDS Sciex), equipped with a nano spray ion source. Peptide mixtures (in 20 μL) are loaded onto a trapping guard column (0.3×5-mm PepMap C18 100 cartridge from LC Packings) using an Eksigent nano MDLC system (Eksigent Technologies, Inc) at a flow rate of 20 μL/min. […] Electrospray ionization (ESI) needle voltage was set at about 1800 V. The mass analyzer is operated in automatic, data-dependent MS/MS acquisition mode, with the threshold set to 10 counts per second of doubly or triply charged precursor ions selected for fragmentation scans. Survey scans of 0.25 sec are recorded from 400 to 1800 amu; up to 3 MS/MS scans are then collected sequentially for the selected precursor ions, recording from 100 to 1800 amu. The collision energy is automatically adjusted in accordance with the m/z value of the precursor ions selected for MS/MS. Selected precursor ions are excluded from repeated selection for 60 sec after the end of the corresponding fragmentation duty cycle. […] One missed tryptic cleavage site was allowed, precursor ion mass tolerance=0.4 Da fragment ion mass tolerance=0.4 Da, protein modifications were allowed for Met-oxide, Cys-acrylamide and N-terminal acetylation. MudPit scoring was typically applied with ‘require bold red’ activated, and using significance threshold score p<0.05. Unique peptide counts (or ‘spectral counts’) and percent sequence coverages for all identified proteins were exported to Scaffold Proteome Software (version 2_06_01, www.proteomesoftware.com) for further bioinformatic analysis (Table 5a). Using output from Mascot, Scaffold validates, organizes, and interprets mass spectrometry data, allowing more easily to manage large amounts of data, to compare samples, and to search for protein modifications.
row,Molecule,"Number of Assigned Spectra, K562 Prep 1"
1,B1,8
2,B2,1
3,B3,3
4,B4,9
5,B5,8
6,B6,5

# Same assay, conditions: protein identified in PU-beads pull-down of K562 cell extract, Prep 2; QSTAR-Elite QTof MS
row,Molecule,"Number of Assigned Spectra, K562 Prep 2"
1,B1,3
2,B2,1
3,B3,3
4,B4,1
5,B5,3
6,B6,6

# System: Hsp90 complexes in Mia-PaCa-2 cell extract
# Experiment: Nano-LC-MS/MS of PU-beads pull-downs
# Type: binding, human
# Conditions: protein identified in PU-beads pull-down of Mia-PaCa-2 cell extract; QSTAR-Elite QTof MS
# Description: as §1
row,Molecule,"Number of Assigned Spectra, Mia-Paca 2"
1,B1,1
2,B2,12
3,B3,8
4,B4,0
5,B5,0
6,B6,0
